{
  "source": "paper PMC11091055",
  "about": "(2024)",
  "binders": {"B1": {"name": "nanobody N235, His-tagged (VHH)", "VHH": "QVQLQESGGGLVQPGGSLRLSCAASGLIISRYDMSWYRQAPGKERELVATTPIPAARPQYADSVKGRFTISRDNAKNTVSLQMNSLKPEDTAVYYCNLGPESQDHNYNYWGQGTQVTVSS"}},
  "biological_target": "SARS-CoV-2 prototype (PT) S NTD, human Fc-tagged (SARS-CoV-2)",
  "assay": "SPR",
  "data": [
    {"binder": "B1", "values": [
      {"measurement": "koff", "result": 0.00024, "unit": "s⁻¹"}
    ]}
  ]
}
